Measured values published in IntAct's records for PubMed 32493513.

B1: Disrupted in schizophrenia 1 protein (Homo sapiens), Q9NRI5 (parent)
chain: MPGGGPQGAPAAAGGGGVSHRAGSRDCLPPAACFRRRRLARRPGYMRSSTGPGIGFLSPAVGTLFRFPGGVSGEESHHSESRARQCGLDSRGLLVRSPVSKSAAAPTVTSVRGTSAHFGIQLRGGTRLPDRLSWPCGPGSAGWQQEFAAMDSSETLDASWEAACSDGARRVRAAGSLPSAELSSNSCSPGCGPEVPPTPPGSHSAFTSSFSFIRLSLGSAGERGEAEGCPPSREAESHCQSPQEMGAKAASLDGPHEDPRCLSRPFSLLATRVSADLAQAARNSSRPERDMHSLPDMDPGSSSSLDPSLAGCGGDGSSGSGDAHSWDTLLRKWEPVLRDCLLRNRRQMEVISLRLKLQKLQEDAVENDDYDKAETLQQRLEDLEQEKISLHFQLPSRQPALSSFLGHLAAQVQAALRRGATQQASGDDTHTPLRMEPRLLEPTAQDSLHVSITRRDWLLQEKQQLQKEIEALQARMFVLEAKDQQLRREIEEQEQQLQWQGCDLTPLVGQLSLGQLQEVSKALQDTLASAGQIPFHAEPPETIRSLQERIKSLNLSLKEITTKVCMSEKFCSTLRKKVNDIETQLPALLEAKMHAISGNHFWTAKDLTEEIRSLTSEREGLEGLLSKLLVLSSRNVKKLGSVKEDYNRLRREVEHQETAYETSVKENTMKYMETLKNKLCSCKCPLLGKVWEADLEACRLLIQSLQLQEARGSLSVEDERQMDDLEGAAPPIPPRLHSEDKRKTPLKVLEEWKTHLIPSLHCAGGEQKEESYILSAELGEKCEDIGKKLLYLEDQLHTAIHSHDEDLIQSLRRELQMVKETLQAMILQLQPAKEAGEREAAASCMTAGVHEAQA
B2: Disrupted in schizophrenia 1 homolog (Mus musculus), Q811T9 (parent)
chain: MQGGGPRGAPIHSPSHGADSGHGLPPAVAPQRRRLTRRPGYMRSTAGSGIGFLSPAVGMPHPSSAGLTGQQSQHSQSKAGQCGLDPGSHCQASLVGKPFLKSSLVPAVASEGHLHPAQRSMRKRPVHFAVHSKNDSRQSERLTGSFKPGDSGFWQELLSSDSFKSLAPSLDAPWNKGSRGLKTVKPLASPALNGPADIASLPGFQDTFTSSFSFIQLSLGAAGERGEAEGCLPSREAEPLHQRPQEMAAEASSSDRPHGDPRHLWTFSLHAAPGLADLAQVTRSSSRQSECGTVSSSSSDTGFSSQDASSAGGRGDQGGGWADAHGWHTLLREWEPMLQDYLLSNRRQLEVTSLILKLQKCQEKVVEDGDYDTAETLRQRLEELEQEKGRLSWALPSQQPALRSFLGYLAAQIQVALHGATQRAGSDDPEAPLEGQLRTTAQDSLPASITRRDWLIREKQRLQKEIEALQARMSALEAKEKRLSQELEEQEVLLRWPGCDLMALVAQMSPGQLQEVSKALGETLTSANQAPFQVEPPETLRSLRERTKSLNLAVRELTAQVCSGEKLCSSLRRRLSDLDTRLPALLEAKMLALSGSCFSTAKELTEEIWALSSEREGLEMFLGRLLALSSRNSRRLGIVKEDHLRCRQDLALQDAAHKTRMKANTVKCMEVLEGQLSSCRCPLLGRVWKADLETCQLLMQSLQLQEAGSSPHAEDEEQVHSTGEAAQTAALAVPRTPHPEEEKSPLQVLQEWDTHSALSPHCAAGPWKEDSHIVSAEVGEKCEAIGVKLLHLEDQLLGAMYSHDEALFQSLQGELQTVKETLQAMILQLQPTKEAGEASASYPTAGAQETEA

Variants of: B1
Conditions: with drd2_human DRD2, P14416
Sequence of drd2_human DRD2, P14416 (P14416 whole entry): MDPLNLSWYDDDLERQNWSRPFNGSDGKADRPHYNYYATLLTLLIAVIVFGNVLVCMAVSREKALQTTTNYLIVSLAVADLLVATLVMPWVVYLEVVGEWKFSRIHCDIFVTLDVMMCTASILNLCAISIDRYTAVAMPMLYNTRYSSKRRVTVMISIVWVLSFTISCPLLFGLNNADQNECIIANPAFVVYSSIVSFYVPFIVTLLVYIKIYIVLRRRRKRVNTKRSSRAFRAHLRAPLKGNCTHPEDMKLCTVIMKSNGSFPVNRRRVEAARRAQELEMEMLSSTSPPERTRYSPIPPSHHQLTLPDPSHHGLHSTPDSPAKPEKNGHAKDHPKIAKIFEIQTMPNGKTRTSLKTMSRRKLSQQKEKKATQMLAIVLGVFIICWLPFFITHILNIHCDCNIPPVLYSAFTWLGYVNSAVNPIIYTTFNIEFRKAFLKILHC

Variant | effect of a mutation on the interaction
R264Q | increasing interaction

Variants of: B1
Conditions: with drd2_human DRD2, P14416
Remark: another data set of the same source

Variant | effect of a mutation on the interaction
A83V | decreasing interaction

Variants of: B2
Conditions: with drd2_human DRD2, P14416

Variant | effect of a mutation on the interaction
L100P | increasing interaction

Variants of: B2
Conditions: with drd2_mouse Drd2, P61168
Sequence of drd2_mouse Drd2, P61168 (P61168 whole entry): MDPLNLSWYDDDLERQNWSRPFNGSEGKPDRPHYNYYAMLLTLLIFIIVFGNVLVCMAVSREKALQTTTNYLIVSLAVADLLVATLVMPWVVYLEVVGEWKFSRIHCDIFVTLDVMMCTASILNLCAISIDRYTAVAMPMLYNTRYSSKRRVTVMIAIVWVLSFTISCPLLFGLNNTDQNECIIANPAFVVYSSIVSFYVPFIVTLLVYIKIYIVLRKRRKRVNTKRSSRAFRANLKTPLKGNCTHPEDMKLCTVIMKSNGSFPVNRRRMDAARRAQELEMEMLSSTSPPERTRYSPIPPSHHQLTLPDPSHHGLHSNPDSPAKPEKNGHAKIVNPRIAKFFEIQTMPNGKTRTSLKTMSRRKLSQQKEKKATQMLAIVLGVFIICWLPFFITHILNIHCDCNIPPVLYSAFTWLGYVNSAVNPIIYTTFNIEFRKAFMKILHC

Variant | effect of a mutation on the interaction
L100P | increasing interaction
